Reference: the supplement of paper PMC9233669
Variants at the floor of the assay were thinned out.

Assays:
biotinyl-Phe-oxazolone = test: self-aminoacylation, catalytic enhancement (BFO) (fold over background); higher = more active; k-Seq, kA / k0A0; sequences stand for … in GGGAAUGGAUCCACAUCUACGAAUUC…UUCACUGCAGACUUGACGAAGCUG
How it was run: (§1)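 Mutagenized RNA pools with a 21-nt variable region (0.43 μM) reacted with each biotinyl-aminoacyl-oxazolone at 2–1250 μM. Reactions ran in 50 μL HEPES/NaCl/KCl/MgCl2/CaCl2 buffer with 5% acetonitrile, pH 6.9–7.0, for 90 minutes at room temperature. Streptavidin-captured RNA was quantified by triplicate qPCR and Illumina sequencing, and per-sequence fraction reacted was fit to a pseudo-first-order model with 1000 bootstraps. Catalytic enhancement is median kA divided by the uncatalyzed rate, the low-activity peak of a bimodal Gaussian fit.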

biotinyl-Ile-oxazolone = test: self-aminoacylation, catalytic enhancement (BIO) (fold over background); higher = more active; k-Seq, kA / k0A0; sequences stand for … in GGGAAUGGAUCCACAUCUACGAAUUC…UUCACUGCAGACUUGACGAAGCUG
How it was run: as §1

biotinyl-Met-oxazolone = test: self-aminoacylation, catalytic enhancement (BMO) (fold over background); higher = more active; k-Seq, kA / k0A0; sequences stand for … in GGGAAUGGAUCCACAUCUACGAAUUC…UUCACUGCAGACUUGACGAAGCUG
How it was run: as §1

biotinyl-Val-oxazolone = test: self-aminoacylation, catalytic enhancement (BVO) (fold over background); higher = more active; k-Seq, kA / k0A0; sequences stand for … in GGGAAUGGAUCCACAUCUACGAAUUC…UUCACUGCAGACUUGACGAAGCUG
How it was run: as §1

biotinyl-Leu-oxazolone = test: self-aminoacylation, catalytic enhancement (BLO) (fold over background); higher = more active; k-Seq, kA / k0A0; sequences stand for … in GGGAAUGGAUCCACAUCUACGAAUUC…UUCACUGCAGACUUGACGAAGCUG
How it was run: as §1

biotinyl-Trp-oxazolone = test: self-aminoacylation, catalytic enhancement (BWO) (fold over background); higher = more active; k-Seq, kA / k0A0; sequences stand for … in GGGAAUGGAUCCACAUCUACGAAUUC…UUCACUGCAGACUUGACGAAGCUG
How it was run: as §1

Sequence	self-aminoacylation (biotinyl-Phe-oxazolone)	self-aminoacylation (biotinyl-Ile-oxazolone)	self-aminoacylation (biotinyl-Met-oxazolone)	self-aminoacylation (biotinyl-Val-oxazolone)	self-aminoacylation (biotinyl-Leu-oxazolone)	self-aminoacylation (biotinyl-Trp-oxazolone)
CCACACUUCAAGCUUUCGGUC [Fam1B.1 aminoacylation ribozyme variant]	0.741	1.53	1.17	1.64	1.3	1.1
CCACACUUCAAGGAAUAGGUC [Fam1B.1 aminoacylation ribozyme variant]	0.627	0.526	0.489	0.514	0.478	0.5
CCACACUUCAAGGAAUUGGUC [Fam1B.1 aminoacylation ribozyme variant]	0.734	0.901	0.755	0.726	1.03	0.823
CCACACUUCAAGGACUCGGUC [Fam1B.1 aminoacylation ribozyme variant]	1.05	1.02	1.03	1.24	1.23	1.13
CCACACUUCAAGUAAUCCGUC [Fam1B.1 aminoacylation ribozyme variant]	0.9	1.06	1.1	1.06	0.839	1.16
CCACACUUCAAGUAAUCGGUA [Fam1B.1 aminoacylation ribozyme variant]	0.884	1.01	1.09	0.929	1.17	0.708
CCACACUUCAAGUAGUCGGUC [Fam1B.1 aminoacylation ribozyme variant]	0.856	0.96	0.857	0.865	0.92	0.919
CCACACUUCAAGUGAUCGGUC [Fam1B.1 aminoacylation ribozyme variant]	1.72	1.04	1.1	1.06	0.951	1.24
CCACACUUCAAUCAACCGGUC [Fam1B.1 aminoacylation ribozyme variant]	0.923	0.862	0.665	1.02	1.06	1.22
CCACACUUCAAUCAAUCGAUC [Fam1B.1 aminoacylation ribozyme variant]	1.25	0.523	0.463	0.609	0.512	0.592
CCACACUUCACGCAAUCAGUC [Fam1B.1 aminoacylation ribozyme variant]	0.704	0.823	0.662	0.731	0.673	0.962
CCACACUUCACGCAAUCUGUC [Fam1B.1 aminoacylation ribozyme variant]	0.436	0.481	0.472	0.678	0.447	0.464
CCACACUUCACGCCAUCGGUC [Fam1B.1 aminoacylation ribozyme variant]	1.28	1.59	1.31	2.13	1.51	2.05
